Experimental data published in the supplement of paper PMC9112550, “Optimization of the antimicrobial peptide Bac7 by deep mutational scanning” (BMC Biology, 2022).

The sequences below were run on Escherichia coli TOP10 (assay: shrunken log2 fold change of peptide-encoding DNA abundance (4.5 h post-induction vs induction); higher = less antimicrobial activity (less host growth inhibition)). Settings: time post-induction: 4.5 h; library: site-saturation at positions 5, 18, 19, 20.
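Further: peptides expressed intracellularly from a pBAD plasmid library in pooled LB shake-flask culture, induced with 0.3% L-arabinose, DNA abundance read by NGS, three biological replicates, DESeq2 with apeglm shrinkage.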

Row | Sequence | shrunken log2 fold change
1 | RRIRWRPPRLPRPRPRPTGSPRP | 0.123
2 | RRIRDRPPRLPRPRPRPTESPRP | -0.00177
3 | RRIRARPPRLPRPRPRPVRMPRP | 0.618
4 | RRIRWRPPRLPRPRPRPTLRPRP | 0.0881
5 | RRIRERPPRLPRPRPRPDDPPRP | -0.157
6 | RRIRLRPPRLPRPRPRPRCDPRP | -0.0342
7 | RRIRVRPPRLPRPRPRPQVRPRP | 0.0179
8 | RRIRFRPPRLPRPRPRPSQKPRP | -0.0426
9 | RRIRERPPRLPRPRPRPPSKPRP | -0.197
10 | RRIRYRPPRLPRPRPRPLCAPRP | -0.356
11 | RRIRDRPPRLPRPRPRPREDPRP | 0.293
12 | RRIRRRPPRLPRPRPRPFFGPRP | 0.159
13 | RRIRLRPPRLPRPRPRPCGEPRP | 0.122
14 | RRIRMRPPRLPRPRPRPLWAPRP | 0.509
15 | RRIRRRPPRLPRPRPRPNNWPRP | 0.612
16 | RRIRKRPPRLPRPRPRPMDCPRP | 0.0101
17 | RRIRARPPRLPRPRPRPTDQPRP | 0.918
18 | RRIRLRPPRLPRPRPRPLQNPRP | 0.166
19 | RRIRCRPPRLPRPRPRPCKNPRP | -0.194
20 | RRIRYRPPRLPRPRPRPTSPPRP | -0.0595
21 | RRIRIRPPRLPRPRPRPSEVPRP | 0.0174
22 | RRIRNRPPRLPRPRPRPHPYPRP | -0.654
23 | RRIRHRPPRLPRPRPRPDPGPRP | -0.199
24 | RRIRQRPPRLPRPRPRPMSHPRP | 0.00245
25 | RRIRPRPPRLPRPRPRPKSSPRP | -0.278

Row | Sequence | shrunken log2 fold change
26 | RRIRSRPPRLPRPRPRPTFCPRP | 0.155
27 | RRIRPRPPRLPRPRPRPLDSPRP | -0.0664
28 | RRIRWRPPRLPRPRPRPRQCPRP | 0.137
29 | RRIRLRPPRLPRPRPRPRPLPRP | 0.579
30 | RRIRKRPPRLPRPRPRPYSHPRP | -0.134
31 | RRIRARPPRLPRPRPRPVMRPRP | 0.292
32 | RRIRDRPPRLPRPRPRPFFMPRP | 0.033
33 | RRIRYRPPRLPRPRPRPAMNPRP | -0.796
34 | RRIRIRPPRLPRPRPRPYNLPRP | -0.391
35 | RRIRNRPPRLPRPRPRPEFKPRP | -0.0932
36 | RRIRVRPPRLPRPRPRPVTGPRP | -0.233
37 | RRIRRRPPRLPRPRPRPGAYPRP | 0.00783
38 | RRIRIRPPRLPRPRPRPPTLPRP | -0.431
39 | RRIRIRPPRLPRPRPRPDQKPRP | -0.0112
40 | RRIRPRPPRLPRPRPRPMHIPRP | -0.105
41 | RRIRKRPPRLPRPRPRPKCDPRP | 0.405
42 | RRIRHRPPRLPRPRPRPYHCPRP | -0.316
43 | RRIRHRPPRLPRPRPRPTLTPRP | -0.188
44 | RRIRYRPPRLPRPRPRPPLWPRP | 0.277
45 | RRIRVRPPRLPRPRPRPRFYPRP | 0.112
46 | RRIRERPPRLPRPRPRPQREPRP | 0.0255
47 | RRIRERPPRLPRPRPRPNNIPRP | -0.787
48 | RRIRPRPPRLPRPRPRPFQYPRP | -0.179
49 | RRIRKRPPRLPRPRPRPNSNPRP | -0.115
50 | RRIRMRPPRLPRPRPRPKEVPRP | 0.00253

Row | Sequence | shrunken log2 fold change
51 | RRIRHRPPRLPRPRPRPSPVPRP | -0.0462
52 | RRIRHRPPRLPRPRPRPYPNPRP | -0.014
53 | RRIRLRPPRLPRPRPRPNNIPRP | -0.559
54 | RRIRERPPRLPRPRPRPDSHPRP | -0.6
55 | RRIRCRPPRLPRPRPRPPSEPRP | 0.102
56 | RRIRLRPPRLPRPRPRPDPSPRP | 0.0199
57 | RRIRERPPRLPRPRPRPKPLPRP | 0.104
58 | RRIRKRPPRLPRPRPRPKWMPRP | -0.168
59 | RRIRFRPPRLPRPRPRPRYRPRP | -0.4
60 | RRIRERPPRLPRPRPRPLKVPRP | -0.0726
61 | RRIRFRPPRLPRPRPRPKDDPRP | -0.052
62 | RRIRTRPPRLPRPRPRPNWLPRP | 0.295
63 | RRIRCRPPRLPRPRPRPLYTPRP | -0.765
64 | RRIRFRPPRLPRPRPRPSWFPRP | -0.403
65 | RRIRTRPPRLPRPRPRPFSSPRP | -0.399
66 | RRIRKRPPRLPRPRPRPFFEPRP | 0.428
67 | RRIRIRPPRLPRPRPRPVAFPRP | -0.306
68 | RRIRCRPPRLPRPRPRPEEMPRP | 0.028
69 | RRIRPRPPRLPRPRPRPSALPRP | -0.00612
70 | RRIRCRPPRLPRPRPRPQRYPRP | -0.105
71 | RRIRQRPPRLPRPRPRPHSDPRP | 0.0233
72 | RRIRVRPPRLPRPRPRPTYYPRP | -0.315
73 | RRIRFRPPRLPRPRPRPWVDPRP | -0.608
74 | RRIRNRPPRLPRPRPRPYNIPRP | -0.13
75 | RRIRERPPRLPRPRPRPSDYPRP | -0.627

Row | Sequence | shrunken log2 fold change
76 | RRIRTRPPRLPRPRPRPNDAPRP | -0.036
77 | RRIRWRPPRLPRPRPRPKSKPRP | 0.194
78 | RRIRHRPPRLPRPRPRPQDGPRP | -0.0342
79 | RRIRRRPPRLPRPRPRPENKPRP | -0.0891
80 | RRIRHRPPRLPRPRPRPVWDPRP | -0.0821
81 | RRIRDRPPRLPRPRPRPTIAPRP | 0.521
82 | RRIRKRPPRLPRPRPRPFTMPRP | -0.23
83 | RRIRQRPPRLPRPRPRPSQQPRP | 0.0129
84 | RRIRSRPPRLPRPRPRPSYIPRP | -1.48
85 | RRIRTRPPRLPRPRPRPVYPPRP | -0.00118
86 | RRIRWRPPRLPRPRPRPMCDPRP | 0.116
87 | RRIRTRPPRLPRPRPRPQFIPRP | -0.07
88 | RRIRGRPPRLPRPRPRPRKMPRP | 0.949
89 | RRIRMRPPRLPRPRPRPCNKPRP | -0.372
90 | RRIRDRPPRLPRPRPRPTAIPRP | 0.394
91 | RRIRRRPPRLPRPRPRPLIHPRP | 0.125
92 | RRIRARPPRLPRPRPRPDTYPRP | -0.11
93 | RRIRRRPPRLPRPRPRPRPAPRP | 1.83
94 | RRIRSRPPRLPRPRPRPWGCPRP | 0.032
95 | RRIRNRPPRLPRPRPRPGSTPRP | -0.145
96 | RRIRIRPPRLPRPRPRPVHVPRP | -0.168
97 | RRIRWRPPRLPRPRPRPFEAPRP | 0.253
98 | RRIRDRPPRLPRPRPRPTQWPRP | 0.0594
99 | RRIRMRPPRLPRPRPRPPTIPRP | 0.301
100 | RRIRIRPPRLPRPRPRPNSSPRP | -0.369

Row | Sequence | shrunken log2 fold change
101 | RRIRVRPPRLPRPRPRPQMYPRP | -0.436
102 | RRIRARPPRLPRPRPRPRNVPRP | 0.0957
103 | RRIRSRPPRLPRPRPRPGCEPRP | 0.145
104 | RRIRVRPPRLPRPRPRPAQFPRP | 0.341
105 | RRIRRRPPRLPRPRPRPNTNPRP | -0.22
106 | RRIRNRPPRLPRPRPRPPNEPRP | 0.217
107 | RRIRVRPPRLPRPRPRPDHMPRP | -0.384
108 | RRIRVRPPRLPRPRPRPPHYPRP | 0.1
109 | RRIRSRPPRLPRPRPRPMYEPRP | 0.0571
110 | RRIRPRPPRLPRPRPRPKCSPRP | -0.197
111 | RRIRSRPPRLPRPRPRPRRWPRP | 0.556
112 | RRIRMRPPRLPRPRPRPAVPPRP | 0.328
113 | RRIRWRPPRLPRPRPRPEYPPRP | 0.208
114 | RRIRARPPRLPRPRPRPWVHPRP | -0.162
115 | RRIRTRPPRLPRPRPRPESTPRP | -0.0383
116 | RRIRYRPPRLPRPRPRPIETPRP | -0.0177
117 | RRIRIRPPRLPRPRPRPNMIPRP | -0.225
118 | RRIRHRPPRLPRPRPRPGCCPRP | 0.0396
119 | RRIRRRPPRLPRPRPRPCACPRP | -0.0784
120 | RRIRRRPPRLPRPRPRPMTPPRP | 0.749
121 | RRIRIRPPRLPRPRPRPLYYPRP | -0.856
122 | RRIRSRPPRLPRPRPRPCVAPRP | 0.0901
123 | RRIRLRPPRLPRPRPRPKDAPRP | -0.11
124 | RRIRNRPPRLPRPRPRPKSTPRP | -0.271
125 | RRIRSRPPRLPRPRPRPRLTPRP | 0.0483
